Legend:
[1] = system: 293 (negative control); assay: Flow cytometry binding to 293 cells (negative control); conditions: 10 μg/ml
Experimental: The four monoclonal antibodies (6-G23-F, 2-C8-A, 7-I1-B and 10-O18-A) were tested for their ability to bind to mouse and cynomolgous DLL3 as well as endogenous human DLL3 by flow cytometry. For this purpose, HEK293 cells were transfected with plasmid DNA encoding full-length human, mouse or cynomolgous DLL3 and used in the experiment. Briefly […] transfected HEK293 cells or NCI-H82 primary cells were added in FACS buffer PBS 0.5% BSA to the wells of a 96 well U bottom plate and purified monoclonal added to 10 μg/ml. After 30 minutes incubation at 4° C. the cells were washed 3 times in FACS buffer and incubated with a PE labelled F(ab)2 anti-mouse IgG H and L 2nd stage. After another 30 minutes incubation at 4° C. the cells were washed three times in FACS buffer and analyzed on the flow cytometer. Data are presented at the ratio of the Mean Fluorescent Intensity for the monoclonal divided by the background staining with the 2nd stage.

[2] = target: T1, DLL1 (Homo sapiens, UniProt O00548); assay: Selectivity of binding among delta-like ligands (FIG. 11)
T1 sequence (O00548 18-723): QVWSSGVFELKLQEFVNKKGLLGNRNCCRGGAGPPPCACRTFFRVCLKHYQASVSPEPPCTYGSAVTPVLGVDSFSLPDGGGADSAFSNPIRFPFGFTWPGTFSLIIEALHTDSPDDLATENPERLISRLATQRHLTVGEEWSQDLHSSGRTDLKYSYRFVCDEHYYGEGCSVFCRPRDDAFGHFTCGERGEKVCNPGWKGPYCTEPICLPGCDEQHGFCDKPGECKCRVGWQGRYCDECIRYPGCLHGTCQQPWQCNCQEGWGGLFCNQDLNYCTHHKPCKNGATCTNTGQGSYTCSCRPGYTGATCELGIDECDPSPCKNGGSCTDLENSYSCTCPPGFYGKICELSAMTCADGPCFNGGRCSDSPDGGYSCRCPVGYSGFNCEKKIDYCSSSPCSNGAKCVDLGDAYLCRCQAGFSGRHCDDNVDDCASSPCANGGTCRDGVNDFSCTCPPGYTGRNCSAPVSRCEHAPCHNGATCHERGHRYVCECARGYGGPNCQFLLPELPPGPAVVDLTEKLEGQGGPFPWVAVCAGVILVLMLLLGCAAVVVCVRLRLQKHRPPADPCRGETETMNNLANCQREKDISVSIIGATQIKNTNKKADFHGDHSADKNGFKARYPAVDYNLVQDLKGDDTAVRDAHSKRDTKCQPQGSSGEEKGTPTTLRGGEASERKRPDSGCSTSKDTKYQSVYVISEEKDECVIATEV

[3] = target: DLL4 (Homo sapiens, UniProt Q9NR61); assay: as above
DLL4, sequence (Q9NR61 27-685): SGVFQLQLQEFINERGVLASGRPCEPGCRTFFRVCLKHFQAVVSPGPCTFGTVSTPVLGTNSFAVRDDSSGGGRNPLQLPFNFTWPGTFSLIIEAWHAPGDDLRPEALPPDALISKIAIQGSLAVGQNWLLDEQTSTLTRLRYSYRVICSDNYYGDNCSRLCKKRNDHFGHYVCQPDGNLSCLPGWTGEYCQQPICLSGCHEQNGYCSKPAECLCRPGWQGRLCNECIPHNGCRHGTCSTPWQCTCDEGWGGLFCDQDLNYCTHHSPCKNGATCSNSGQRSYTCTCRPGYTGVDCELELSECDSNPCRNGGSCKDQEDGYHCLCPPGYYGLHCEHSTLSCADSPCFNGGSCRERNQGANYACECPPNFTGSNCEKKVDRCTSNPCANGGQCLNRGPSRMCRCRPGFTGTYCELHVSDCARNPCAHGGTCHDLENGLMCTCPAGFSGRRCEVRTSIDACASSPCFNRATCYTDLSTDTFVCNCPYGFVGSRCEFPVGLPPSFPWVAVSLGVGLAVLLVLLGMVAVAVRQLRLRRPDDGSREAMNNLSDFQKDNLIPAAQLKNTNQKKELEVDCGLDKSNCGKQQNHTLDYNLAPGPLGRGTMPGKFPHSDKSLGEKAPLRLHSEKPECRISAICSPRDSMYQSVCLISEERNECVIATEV

[4] = target: T2, DLL3 (Homo sapiens, UniProt Q9NYJ7); assay: 4/37 internalization assay (staining at 4° C. versus 37° C., flow cytometry); type: cell-based; parameters: endogenous in cells; host or cells: NCI-H82; conditions: NCI-H82 cells, compared with reference monoclonal antibody SC16
T2 sequence (Q9NYJ7 27-618): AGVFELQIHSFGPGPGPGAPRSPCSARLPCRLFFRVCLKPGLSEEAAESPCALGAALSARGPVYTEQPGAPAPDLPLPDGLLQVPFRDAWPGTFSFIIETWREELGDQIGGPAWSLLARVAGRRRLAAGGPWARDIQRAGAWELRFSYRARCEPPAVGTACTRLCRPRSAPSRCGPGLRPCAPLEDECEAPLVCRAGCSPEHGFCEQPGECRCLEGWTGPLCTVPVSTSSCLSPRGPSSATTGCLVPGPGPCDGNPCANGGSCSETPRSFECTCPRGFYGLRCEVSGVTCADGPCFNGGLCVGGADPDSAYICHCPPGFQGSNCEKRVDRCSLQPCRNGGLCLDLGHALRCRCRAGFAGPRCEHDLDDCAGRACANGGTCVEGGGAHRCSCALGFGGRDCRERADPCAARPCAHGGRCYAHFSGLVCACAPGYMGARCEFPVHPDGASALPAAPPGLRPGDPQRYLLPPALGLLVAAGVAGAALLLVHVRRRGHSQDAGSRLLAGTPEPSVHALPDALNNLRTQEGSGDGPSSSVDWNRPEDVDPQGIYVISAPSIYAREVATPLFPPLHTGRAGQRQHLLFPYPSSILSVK
Experimental: The four monoclonal antibodies (6-G23-F, 2-C8-A, 7-I1-B and 10-O18-A) were compared for their ability to internalize DLL3 by comparing the staining at 4° C. with that at 37° C. A reference monoclonal antibody SC16, which is known to internalize via DLL3 and to have ADC activity, and which was previously reported in the literature, was used as the positive control for internalization. NCI-H82 cells in exponential growth were harvested with trypsin/EDTA, washed once in RPMI containing 10% fetal calf serum (FCS) and resuspended in DMEM supplemented with 10% FCS at 2×10^7 cells/ml. 100 μl (2×10^6 cells) were added to U bottom 96 well plates. The test monoclonal antibodies (6-G23-F, 2-C8-A, 7-I1-B or 10-O18-A) or the reference monoclonal antibody were added to separate wells to give a final concentration of 10 μg/ml in duplicate plates. […] After 30 minutes incubation at 4° C. the cells were washed three times in cold wash buffer and either fixed in PBS 0.5% paraformaldehyde and analyzed by flow cytometry within 48 hours. The mean fluorescent intensity (MFI) ratios calculated by dividing the MFI obtained from the control plate (which incubated with the antibodies at 4° C.) by the corresponding MFI obtained from the experimental plate (which incubated with the antibodies at 37° C.) was taken as a relative measure of internalization. […]

[5] = target: T3, Histidine-tagged DLL3 antigen (DLL3-His) (Homo sapiens, UniProt Q9NYJ7); assay: Pairwise epitope binning, Carterra array SPR; conditions: pairwise competition for binding to DLL3-His
T3 sequence (Q9NYJ7 27-479): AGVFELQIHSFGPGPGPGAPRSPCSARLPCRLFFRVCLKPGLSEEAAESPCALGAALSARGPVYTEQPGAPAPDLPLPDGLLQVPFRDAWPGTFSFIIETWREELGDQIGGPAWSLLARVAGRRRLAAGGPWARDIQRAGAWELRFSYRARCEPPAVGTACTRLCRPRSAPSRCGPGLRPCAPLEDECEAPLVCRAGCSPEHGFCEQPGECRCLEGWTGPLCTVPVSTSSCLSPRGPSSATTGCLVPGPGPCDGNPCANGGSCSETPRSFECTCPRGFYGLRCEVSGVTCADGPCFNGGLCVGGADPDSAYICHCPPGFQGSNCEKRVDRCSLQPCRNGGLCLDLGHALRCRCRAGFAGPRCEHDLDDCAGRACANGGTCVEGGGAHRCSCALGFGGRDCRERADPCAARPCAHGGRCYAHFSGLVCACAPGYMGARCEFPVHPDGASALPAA
Experimental: The panel of purified anti-DLL3 monoclonal antibodies and the reference monoclonal antibody were subjected to pairwise epitope binning on a Carterra® array surface plasmon resonance (SPR) assay platform (Carterra® Inc., Salt Lake City UT) where each monoclonal antibody was tested for the capture of Histidine-tagged DLL3 antigen (DLL3-His), and also for competing with every other antibody in the panel for the binding to DLL3-His. The antibodies were immobilized on a HC200M chip (ligand) through standard amine coupling techniques by the print array method. Then in each cycle antigen was injected across the entire array followed by a single antibody (analyte). At the end of each cycle the surface was regenerated to remove antigen and analyte before a new cycle started. As shown in the Table below, three different bins were identified with the panel with 7-I1-B and 2-C8-A mapping to bin 2 while 6-G23-F was in bin 3 and 10-O18-A was in bin 1.

[6] = target: T2, DLL3; assay: Selectivity of binding among delta-like ligands (FIG. 11)

binding to DLL1 [2]: not DLL1 or DLL4
binding to DLL4 [3]: not DLL1 or DLL4
Epitope Bin [5]: 2
binding to DLL3 [6]: selectively bind DLL3
B1: 2-C8-A: anti-DLL3 monoclonal antibody, VH SEQ ID NO: 12 and VL SEQ ID NO: 17 (antibody, V domains shown)
VH: EVQLVESGGGLVQPGGSQRLSCAASGFTFSSYWMNWVRQAPGKGLEWVANIKEDGSEKYYVDSVKGRFTISRDNAKNSLYLQMNSLRAEDTAVYYCARDPGWAPFDYWGQGTLVTVSS
VL: DIQMSQSPSSLSASVGDRVTITCRASQGISNYLAWFQQKPGKAPKSLIYAASSLQSGVPSKFSGSGSGTDFTLAISSLQPEDFATYYCQQYNSFPYTFGQGTTLEIK
293 (negative control) (ratio of MFI for the monoclonal divided by background staining with the 2nd stage) [1]: 0.59
ability to internalize DLL3 [4]: able to internalize on binding DLL3 but not to the extent of the reference monoclonal antibody

Reference: patent US20240115720A1, “ANTIBODY-PYRROLOBENZODIAZEPINE DERIVATIVE CONJUGATE” (MEMORIAL SLOAN KETTERING CANCER CENTER, priority 2021, published 2024)
